test: yeast display, Sf9 membrane polyspecificity reagent, FACS + sequencing; frameworks hold sequencing errors
Procedure, shortened: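 Nanobodies came from a synthetic yeast display library in Saccharomyces cerevisiae BJ5465, induced with galactose for 36–48 hours and stained for 1 hour at 4 °C with 10% biotinylated, detergent-solubilized Sf9 membrane reagent. Cells were enriched on streptavidin microbeads and then FACS-sorted, with low and high (top ~1%) gates set on anti-HA fluorescence for expression and streptavidin fluorescence for reagent binding. Each polyreactivity label reflects the gate a clone came from. Genes were amplified by colony PCR, sequenced by MiSeq 2 × 250 and filtered by CDR length.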

| Sequence | polyreactivity (PSR sort gate) |
| --- | --- |
| QVQLVESGVGLVQAGGSLRLSCAASGIIFSSYAMGWYRQAPGKERELVAAITWNGGRTYYADSVKGRFTISRDNAKNSVYLQMNSLKPEDTAVYYCAALQGRSSARQDSYGYWGQGTQVTVSS | high polyreactivity |
| QVHLVESGGGLVQAGGSLRLSCAASGSIFGNNAMGWYRQAPGKERELVAAISSGGSTNYADSVKGRFTISRDNAKNTVYLQMNSLKPEDTAFYYCAKHSWSRAFSWATRLHWRYDYWGQGTQVTVSS | low polyreactivity |
| QVQLVESGGGLVQAGGSLRLSCAASGIIFESYAMGWYRQAPGKERELVAAISWDGGSTYYADSVKGRFTISRDNAKNTVYLQMNSLKPEDTAVYYCAAESYGIYDGYDYWGQGTQVTVSS | high polyreactivity |
| QVQLVESGGGLVQAGGSLRLSCAASGRTFAPYAMGWYRQAPGKERELVAGITYRTGNTYYADSVKGRFTISRDNAKNTVYLQMNSLKPEDTAVYYCAAYSGYYRPRYNYWGQGTQVTVSS | high polyreactivity |
| PVQLVESGGGLVQAGGSLSLTCAASGIIFPVYAMGWYIQAPGKERELVAAITYSGDRTYYADSVKGRFTISRDNAKYTVYLQMNSLKPEDTAVDYFNARFGVWPYFYNEDDYLGQGTQVTVSS | low polyreactivity |
| QVQLVESAGGLVQAGGSLRLSCAASGIIFEYYTRGWYRQAPGKERELVASITYDGDSTYYADSVKGRFTISRDNAKNTVYLQMNSLKPEDTAVYYCAADYYYVYSSFGHYYWGQGTQVTVSS | low polyreactivity |
| QVQLVESGGGLFQAGGSLRLSCAASGSIFLYYAMGWYRQAPGKERELDATIRRRDGSTYYADSVKGRFTISRDNAKNTVYLQMNSLIPEDTAVYYCNTAGYYWLHYTMDYWGQVTQVTVSS | high polyreactivity |
| QVQLVESGGGLVQAGGSLRLSCAASGIIFYPYAMGWYRQAPGKERELVAAISQSGGTTSYADSVKGRFTISRDNAKNTVYLQMNSLKPEDTAVYYCARRVSTRKRYYYWGQGTQVTVSS | high polyreactivity |
| QVHLVESGGGLVQAGGSLRLSCAASGLTFAYYAMGWYRQAPGKERELVAAITDSAGNTYYADSVKGRFTISRDNAKNTVYLQMNSLKQEDTAVYYCAAAWPSTGLLYVLGYSGYGYWGQGTQVTVSS | low polyreactivity |
| QDQLVESGGGLVQPGGSLRLSCAASGSTFANYAMGWYRQAPGNERQLVAALDHSGGSTYYADSVKGRFTISRDNAKNPVYLQMNSLKPEDTAVYYCNVVNGWLDVSSPDDSLAYLYDYWGQGSQVTVSS | low polyreactivity |
| QVQLVESGGGLVQAGGSLRLSCAAYGRTFRLNAMGWYRQAPGKERELVAGIRVRAGTTYYADSVKGRFTISRDNAKNTVYLQMNSLKPEDTAVYYCAAESYSRSRKYDYWGQGTQVTVSS | high polyreactivity |
| QVQLVESGGGLVQAGGSLRLSCAASGSTFHLYAMGWSRQAPGKERELVAVITSGDSTSYADSVKGRFTISRDNAKNTVYLQMNSLKPEDTAVYYCAADSYSGYNYWGQGTQVTVSS | low polyreactivity |
| QVQLVESGAGLVQAGGSLRLSCAASGSIFSYYVMGWYRQAPGKERELVAAISYSGGRTYYADSVKGSFTISRDNAKYTVYLQMNSLKPEDTAVYFCAASRRVGEVSYYYWGQGTQVTVSS | high polyreactivity |
| QVQIVASWGGLVQAGGSLRLSCAATGRIFEINAMGWYRQAPGKERELVAAITRSGGSTYYADSVKGRFTISRDYAKNTVYVQMNSLKPEDTAVYYCAARGRYWYSRYYSWGQGTQVTVSA | high polyreactivity |
| QVQLLESGGGLVQAGGSLRLSCAASGLIFGENAMGWYRQAPGKERELVAAISRRAGITYYADSVKGRFTISRDNAKNTVYLQMNSLKPEDTAVYYCAAQYYLYRSRFDYWGQGTQVTVSS | high polyreactivity |
| QVQLVESGGGLVQAGGSLRLSCAASGSTFFYYAMVWYRQAPGKERELVAAISQSSASTYYADSVKGRFTISRDNAKNTVYLQMNSLKPEDTAVYYCAAARGYWWYDYWGQGTQVTVSS | high polyreactivity |
| QVQLVDSGGGLVQAGGSLRLSCAASGLTFYSNAMGWYRQAPGKEREFVASITRRTGITFYAVSVKGRFTISRDNAKNTVYLQMNSLKPYDTAVYYCATRGGYPKGYGYLAFNYWGQGTQVTVSS | high polyreactivity |
| QVQLVESGGGLVQAGGSLRLSCAASGSTFYRYVMGWYRQAPGKERELVAAISKSDGSTYYADSVKGRFTISRDNAKNTVYLQMNSLIPEDTAVYYCAADGSKWDWWEYEYWGQGTQVTVSS | high polyreactivity |
| QVQLVESGGGLVQAGGSLRLSCAASGSILFRYGMGWYRQAPGKERELVAAINSGGSTYADSVKGRFTISRDNAKNTVYLQMNSLKPEDTAVYYCAKVAWQAHGGPGEFDYWGQGTQVTVSS | low polyreactivity |
| QVQLVESGGGIVQAGVSLRLSCAASGGTLCTYAMGWYRQAPGKERELVASIDSGDSTYYADSVKGRFTISRDNAKNTVYLQMNSLKPEDTAVYYCAAAYFRRYTTTWYGYEYWGQGTQVTVSS | low polyreactivity |
| QVQLVESGGGLVQAGGSLRLSCAASGRIFSTYAMGWYRQAPGKERELVAAISWRGGNTYYADSVKGRFTISRDNAKNTVYLQMNSLKPEDTAVFYCAAASFAYPYRNSALDYWGQGTQVTVSS | high polyreactivity |
| QVQLVESGGGLVQAGGSLRLSCAASGRTFVGYPMGWCRQAPGKERELVAAIDLSDGSTSYADSVKGRFTISRDHAKNTVYLQMISLTPEHTAVYYCAKTSANVYAGAHDSWGQGTQVTVSS | low polyreactivity |
| QVQLVESGGGLVQAGGSLRLSCAASGRTFYAYAMGWYRQAPGKERELVAAITKRDGITFYADSVKGRFTISRDNAKNTVYLQMNSLKPEDTAVYYCAATGYVGGIYGHYPRGYWGQGTQVTVSS | high polyreactivity |
| QVQLVESGGGLVQAGGSLRLSCAASGRIFPYYAMGWYRQAPGKERELVAAITTSGGSTYYADSVKGRFTISRDNAKNTVYLQMNSLKPEDTAVYYCARDLYYYSPYDEYDSWGQGTQVTVSS | low polyreactivity |
| QVQLVESGGGLVQAGGSLRLSCAASGSIFYSNAMGWYRQAPGKERQLVAAIDSGTSTNYADSVKGRFTISRDNAKNTVYLQMNSLKPEDTAVYYCARLLGPVRDKYDYDYWGQGTQVTVSS | low polyreactivity |
| QVQLVESGGGLVQAGGSLRLSCAASGFTFSKYVMGWYRQAPGKERELVAAITTSGGSTYYADSVKGRFTISRDNAKNTVYLQMNSLKPEDTAVYYCNARSLHTSEGDYWGQGTQVTVSS | low polyreactivity |
| QVQLVESGGGLVQAGGSLRLSCAASGSTFNVYAMGWYRQAPGKERELVAGIRDSDGSTNYADSVKARFTISRDNAKNTVYLQMNSLKQEDPAVYYCAADLYDINWSVWLDYWGQGTQVTVSS | low polyreactivity |
| QVQLVESGGGLVQAGGSLRLSCAASGSTFTGYTMGWYRQAPGKERELVAAITYRGGSTYYADSVKGRFTISRDNAKITDYLQMNSLIPEDTAVYYCAAVPEYYEYSPYDYWGQGTQVTVSS | low polyreactivity |
| QVQLVESGGGLVQAGGSLRLSCAPSGFTFRFYVMGWYRQAPGKERELVAAISSSGGSTYYADSVKGRFTISRDNAKYTVYLQMNSMKPEDTAVYYCAADVPGARVSYWTYSGWHYDYWGQGTQVTVSS | high polyreactivity |
| QVKLVDSAGGLVQAGVILRLRCAASGSIVRPNAMGWYSQATGKERELVAAITSSGTTNYADSVKVRFTISRDNAKNTVYLQMNSLKPEDTAVYYCAAERKDGGYGYGVWDYYPGENMDYWGQGTQVTVSS | low polyreactivity |

Source: the nanobody polyreactivity screen of Harvey et al. (2022)
